# Test results: patent US8518892B2, “Methods to treat symptoms of pathophysiology related to body mass” (Board of Supervisors of Louisiana State University and …, priority 2005, dated 2013)
# B1: Enho 1: human Enho 1, a 76 amino acid peptide having the sequence SEQ ID NO: 14 (peptide, listed as Homo sapiens)
# chain: MGAAISQGALIAIVCNGLVGFLLLLLWVILCWACHSRSADVDSLSESSPNSSPGPCPEKAPPPQKPSHEGSYLLQP
# System: KKAy mice
# Test: Enho 1 ip for 3 days in KKAy mice (Examples 16-18)
# Assay type: in vivo, mouse
# Description: (§1) The effect of Enho-1 upon weight loss was tested over the course of 3 days using KKAy mice. The mice were fed Breeder Chow (Purina 5015) and were approximately 12-14 weeks of age at the start of the experiment. Six control mice received vehicle only while six test mice each received doses of either 900 nmol/kg/d or 9000 nmol/kg/d. The injections were given as 3 intraperitoneal (ip) injections at 0600, 1400 and 2000 h on days 1 and 2; over the 3 day period, the mice received a total of 7 injections. All animals were euthanized 5 hours after the last injection given the morning of the third day. Food was removed after the final injection.
# as §1, with “insulin and glucose” for “weight loss”, “while five or” for “while”, “nmol/kg/d, respectively.” for “nmol/kg/d.”, “ip” for “intraperitoneal (ip)”, “injection. The HOMA-IR for each treatment was calculated using the following formula: ((glucose mg/dL÷18)×(insulin ng/ml×25.05))÷22.5” for “injection.”
# as §1, with “liver weight, liver lipid content and liver TG” for “weight loss”, “while five or” for “while”, “nmol/kg/d, respectively.” for “nmol/kg/d.”, “ip” for “intraperitoneal (ip)”
# [1] = 900 nmol/kg/d ip, listed as Enho-1
# [2] = 9000 nmol/kg/d ip, listed as Enho-1
molecule,measurement,setting,value
B1,Blood glucose,900 nmol/kg/d ip,474 mg/dL
same,HOMA-IR,900 nmol/kg/d ip,167
same,HOMA-IR decrease as compared to the control group,900 nmol/kg/d ip,29%
same,Insulin,900 nmol/kg/d ip,5.7 ng/mL
same,Liver TG,900 nmol/kg/d ip,40 mg/g
same,Liver TG total,900 nmol/kg/d ip,66 mg/g
same,Liver lipid,900 nmol/kg/d ip,82 mg/g
same,Liver lipid total,900 nmol/kg/d ip,137 mg/g
same,Liver weight,900 nmol/kg/d ip,1.6 g
same,Liver weight % body weight,900 nmol/kg/d ip,5.0%
same,Weight (pre-treatment),900 nmol/kg/d ip,35.3 g
same,Weight (termination),900 nmol/kg/d ip,33.0 g
same,blood glucose levels decrease,900 nmol/kg/d ip,approximately 10%
same,insulin levels reduction,900 nmol/kg/d ip,about 22%
same,liver TG reduction as compared to the control group,900 nmol/kg/d ip,32%
same,Blood glucose,[1],474 ± 29 mg/dL
same,HOMA-IR,[1],167 ± 18
same,HOMA-IR decrease as compared to the control group,[1],(↓ 29%)
same,Insulin,[1],5.7 ± 0.5 ng/mL
same,Liver TG,[1],40 ± 8 mg/g
same,Liver TG total,[1],66 ± 13 mg/g
same,Liver lipid,[1],82 ± 9 mg/g
same,Liver lipid total,[1],137 ± 18 mg/g
same,Liver weight,[1],1.6 ± 0.1 g
same,Liver weight % body weight,[1],5.0 ± 0.2%
same,Weight (pre-treatment),[1],35.3 ± 1.1 g
same,Weight (termination),[1],33.0 ± 1.0 g
same,Blood glucose,9000 nmol/kg/d ip,480 mg/dL
same,HOMA-IR,9000 nmol/kg/d ip,213
same,HOMA-IR decrease as compared to the control group,9000 nmol/kg/d ip,9%
same,Insulin,9000 nmol/kg/d ip,7.0 ng/mL
same,Liver TG total,9000 nmol/kg/d ip,53 mg/g
same,Liver lipid,9000 nmol/kg/d ip,87 mg/g
same,Liver lipid total,9000 nmol/kg/d ip,143 mg/g
same,Liver weight,9000 nmol/kg/d ip,1.6 g
same,Liver weight % body weight,9000 nmol/kg/d ip,4.9%
same,Weight (pre-treatment),9000 nmol/kg/d ip,35.6 g
same,Weight (termination),9000 nmol/kg/d ip,33.1 g
same,liver TG reduction as compared to the control group,9000 nmol/kg/d ip,46%
same,Liver TG,"9000 nmol/kg/d ip, P < 0.05 vs control",32 mg/g
same,Liver TG,"9000 nmol/kg/d ip, P < 0.05 vs control, listed as Enho-1",32 ± 5 mg/g
same,Blood glucose,[2],480 ± 38 mg/dL
same,HOMA-IR,[2],213 ± 37
same,HOMA-IR decrease as compared to the control group,[2],(↓ 9%)
same,Insulin,[2],7.0 ± 0.8 ng/mL
same,Liver TG total,[2],53 ± 11 mg/g
same,Liver lipid,[2],87 ± 6 mg/g
same,Liver lipid total,[2],143 ± 17 mg/g
same,Liver weight,[2],1.6 ± 0.1 g
same,Liver weight % body weight,[2],4.9 ± 0.3%
same,Weight (pre-treatment),[2],35.6 ± 0.6 g
same,Weight (termination),[2],33.1 ± 0.4 g
